Measurements from article PMC2811064.

Target: semi-synthetic KcsA^(70,82) channel (UniProt P0A334)
Experiment: SDS-PAGE

stoichiometry N: 4
Substance: semi-synthetic KcsA^(70,82) channel (from UniProt P0A334 1-69; P0A334 82-160) (natural protein)
